Test results as given in paper PMC6710073 (Nature chemical biology, 2019).
Read-outs that look alike come from different tables or passages of the source. Non-standard residues stand in square brackets, D forms with d. No end group written: not given here. Cba = N[C@@H](CC1CCC1)C(=O)O

Columns and labels:
Experiment in all cases: BLI
SUMO-25–109MDM2 [1] = molecular target: T1, SUMO-25–109MDM2 (UniProt Q00987 25-109)
SUMO-25–109MDM2 [2] = molecular target: T1, SUMO-25–109MDM2; remark: listed apart in the source
SUMO-25–109MDM2 [3] = molecular target: T1, SUMO-25–109MDM2; remark: listed apart in the source

B1: compound 37 (peptide)
chain: LTFEHY[hexylalanine]AQ[Cba]TSK
Work on B1 yielded a Kd (SUMO-25–109MDM2 [1]) of 0.5 nM.

B2: biotinylated 118: modified 15–29 p53 peptide with an N-terminal Gly-Ser linker (peptide)
peptide: GSGSGSGSGSGSSQETFSDLWKLLPEN
modifications: not fully specified; D-biotin on its N terminus
B2: binds (SUMO-25–109MDM2 [2]).

B3: compound 6 (peptide)
peptide: LTFEHYWAQFTSK
modifications: also: biotinylated, position not given here
B3: binds (SUMO-25–109MDM2 [3]).
